Measured values as given in patent EP3875478A1.
Blank lines part the entries; values can stand above or below the substance they belong to.

How the values were obtained:
[1] = biological target: CD64wt-Bbz CAR (native CD64 - TMCD8 - 4-1BB - CD3z) on primary T lymphocytes (human); assay: cell-based or functional assay
[2] = biological target: CD64+V172-28z CAR (CD64 with insertion of Valine at 172 - TMCD8 - CD28 - truncated CD3z) on primary T lymphocytes (human); assay: cell-based or functional assay
[3] = biological target: CD64K130S CAR (4-1BB-CD3z) on primary T lymphocytes (human); assay: cell-based or functional assay
[4] = biological target: CD64K130Y CAR (CD64 K130Y - TMCD8 - 4-1BB - full CD3z) on primary T lymphocytes (human); assay: cell-based or functional assay
human IgG1 (human) = assay: Biacore (SPR), format not described
[5] = biological target: CD64R175A CAR (CD64 R175A - TMCD8 - CD28 - CD3z) on primary T lymphocytes (human); assay: cell-based or functional assay

Substance: anti-CD20 antibody IgG1 mutated at Leucine 235 to Alanine
cytokine secretion, 24h co-culture with Raji, antibody 2 ug/mL, 2,5% Human Serum, mean [4]: 2720
cytokine secretion, 24h co-culture with Raji, antibody 2 ug/mL, 10% FBS, mean [4]: 6270
cytokine secretion, 24h co-culture with Raji, antibody 2 ug/mL, 20% Human Serum, mean [4]: 292
percent inhibition 20%HS vs 10%FBS [4]: 95.3%

Substance: native CD64 (human high affinity Fc gamma receptor alpha chain), as measured by Biacore
Kd (human IgG1 (human)): 10 nM

Substance: CD64 with K130H mutation, as measured by Biacore (receptor)
Kd (human IgG1 (human)): 53 nM
fold lower affinity for IgG1 than native CD64 (human IgG1 (human)): 5 fold

Substance: anti-CD22 antibody (m971 clone), IgG1
cytokine secretion, 24h co-culture with Raji, antibody 2 ug/mL, 10% FBS, mean [5]: 55900
cytokine secretion, 24h co-culture with Raji, antibody 2 ug/mL, 20% Human Serum, mean [5]: 27000
percent inhibition 20%HS vs 10%FBS [5]: 51.6%
cytokine secretion, 24h co-culture with Raji, antibody 2 ug/mL, 10% FBS, mean [4]: 20900
cytokine secretion, 24h co-culture with Raji, antibody 2 ug/mL, 20% Human Serum, mean [4]: 9580
percent inhibition 20%HS vs 10%FBS [4]: 54.2%

Continued, values first:

% inhibition 20%HS vs 10%FBS (24h) [1]: 90.3%
% inhibition 20%HS vs 10%FBS (3 days) [1]: 91.7%
% inhibition 20%HS vs 10%FBS (7 days) [1]: 69.5%
% inhibition (72h, 20% human serum vs 10% FBS) [1]: 92.8%
gamma IFN secretion in proliferation assay, 10% FBS, mean (3 days) [1]: 203000
gamma IFN secretion in proliferation assay, 10% FBS, mean (7 days) [1]: 107000
gamma IFN secretion in proliferation assay, 20% human serum, mean (3 days) [1]: 16900
gamma IFN secretion in proliferation assay, 20% human serum, mean (7 days) [1]: 32600
gamma interferon secretion, 24h co-culture with Raji, 10% FBS, mean [1]: 12000
gamma interferon secretion, 24h co-culture with Raji, 20% human serum, mean [1]: 1170
gamma interferon secretion, 72h co-culture with Raji, 10% FBS, mean [1]: 123000
gamma interferon secretion, 72h co-culture with Raji, 20% human serum, mean [1]: 8810
inhibition of proliferation by human serum [1]: 6 fold
% inhibition 20%HS vs 10%FBS (24h) [2]: 20.4%
% inhibition 20%HS vs 10%FBS (3 days) [2]: 40.2%
% inhibition 20%HS vs 10%FBS (7 days) [2]: 51.7%
% inhibition (72h, 20% human serum vs 10% FBS) [2]: 31.5%
gamma IFN secretion in proliferation assay, 10% FBS, mean (3 days) [2]: 438000
gamma IFN secretion in proliferation assay, 10% FBS, mean (7 days) [2]: 753000
gamma IFN secretion in proliferation assay, 20% human serum, mean (3 days) [2]: 262000
gamma IFN secretion in proliferation assay, 20% human serum, mean (7 days) [2]: 364000
gamma interferon secretion, 24h co-culture with Raji, 10% FBS, mean [2]: 11500
gamma interferon secretion, 24h co-culture with Raji, 20% human serum, mean [2]: 9130
gamma interferon secretion, 72h co-culture with Raji, 10% FBS, mean [2]: 399000
gamma interferon secretion, 72h co-culture with Raji, 20% human serum, mean [2]: 273000
inhibition of proliferation by human serum [2]: 38%
cytokine secretion, 24h co-culture with Raji, antibody 2 ug/mL, 2,5% Human Serum, mean [3]: 5350
cytokine secretion, 24h co-culture with Raji, antibody 2 ug/mL, 10% FBS, mean [3]: 5410
cytokine secretion, 24h co-culture with Raji, antibody 2 ug/mL, 20% Human Serum, mean [3]: 2730
percent inhibition 20%HS vs 10%FBS [3]: 49.5%
Substance: anti-CD20 antibody (Rituximab clone), IgG1

Kd (human IgG1 (human)): 74 nM
fold reduction of the affinity of CD64 for IgG1 (human IgG1 (human)): 7 fold
Substance: CD64 with K130S, as measured by Biacore (receptor)
